For this assay, the target named is lnkH2B-H2A.Z (linked H2B-H2A.Z, single polypeptide chain) (human) (UniProt Q16778). In words: AUC.

We go through one molecule from article PMC3975505.

B1: Anp32e_(186-232) (domain or fragment)
chain: EEEEEEEEEDEDEDEDEDEAGSELGEGEEEVGLSYLMKEEIQDEEDD
For orientation: stoichiometry N means a count of units in the complex or per binding partner. In turn, B1 displayed a stoichiometry N of 1.
